The Human Domainome abundance scans (Beltran et al. 2025)
± gives the uncertainty stated by the source.

B1: Pituitary-specific positive transcription factor 1, residues 130 to 198; numbered along this chain, P28069 (parent)
chain: RELEKFANEFKVRRIKLGYTQTNVGEALAAVHGSEFSQTTICRFENLQLSFKNACKLKAILSKWLEEAE

Variants of: B1
Experiment: abundance fitness (aPCA) (normalised: wild type 0, dead -1); higher = more abundant; growth selection in yeast, the domain comes from the species named
Details: Homo sapiens

Row | Variant | abundance fitness
1 | A7E | -0.235 ± 0.11
2 | R1N | -0.37 ± 0.17
3 | N46H | -0.545 ± 0.12
4 | K56D | -0.366 ± 0.1
5 | A27Y | -0.144 ± 0.08
6 | C55D | 0.188 ± 0.34
7 | Q21G | -1.07 ± 0.19
8 | V12C | -0.183 ± 0.11
9 | S50Q | -0.533 ± 0.3
10 | N46T | -0.579 ± 0.12
11 | A30N | -0.219 ± 0.071
12 | E67N | -0.134 ± 0.099
13 | K16R | -0.027 ± 0.044
14 | T40N | -0.71 ± 0.29
15 | K56L | -0.466 ± 0.077
16 | L47E | -0.635 ± 0.16
17 | K58T | -0.477 ± 0.072
18 | A27G | -0.739 ± 0.23
19 | Y19H | -0.376 ± 0.38
20 | A30T | -0.23 ± 0.085
21 | T20P | -0.942 ± 0.3
22 | I41P | -0.897 ± 0.35
23 | Q48S | -0.389 ± 0.094
24 | L57E | -0.345 ± 0.12

Row | Variant | abundance fitness
25 | G33Q | -0.212 ± 0.1
26 | C55A | -0.207 ± 0.1
27 | K63T | 0.022 ± 0.047
28 | S37C | -0.281 ± 0.071
29 | K52Q | 0.022 ± 0.098
30 | G25A | 0.396 ± 0.057
31 | L61F | -0.536 ± 0.12
32 | S50M | -0.766 ± 0.23
33 | E66N | -0.373 ± 0.14
34 | R43P | -0.855 ± 0.11
35 | L3R | -0.751 ± 0.24
36 | E9Y | -0.72 ± 0.16
37 | C42W | -0.101 ± 0.059
38 | L28R | -0.554 ± 0.068
39 | T39L | -0.242 ± 0.074
40 | Q48F | -0.889 ± 0.4
41 | I60P | -0.2 ± 0.08
42 | N46D | -0.112 ± 0.098
43 | S50R | -0.348 ± 0.059
44 | V24M | -0.851 ± 0.26
45 | N23A | 0.267 ± 0.074
46 | T22C | -0.108 ± 0.079
47 | I60S | -0.568 ± 0.099
48 | I15E | -0.014 ± 0.11

Row | Variant | abundance fitness
49 | F36A | -0.496 ± 0.093
50 | R14P | -0.781 ± 0.27
51 | L17H | -0.497 ± 0.29
52 | E4K | -0.084 ± 0.08
53 | R13W | -0.733 ± 0.22
54 | A7C | -0.21 ± 0.061
55 | E45V | -0.809 ± 0.15
56 | A27I | -0.166 ± 0.15
57 | V31H | -0.574 ± 0.27
58 | S62E | 0.016 ± 0.087
59 | T20V | -0.789 ± 0.092
60 | A59S | 0.007 ± 0.042
61 | S50G | 0.035 ± 0.042
62 | F6S | -0.997 ± 0.13
63 | L3C | -0.953 ± 0.44
64 | C42D | 0.325 ± 0.085
65 | A68T | -0.05 ± 0.13
66 | K52H | 0.018 ± 0.21
67 | A30M | -0.261 ± 0.075
68 | K16H | -0.786 ± 0.37
69 | A59Y | -0.298 ± 0.099
70 | K5E | -0.062 ± 0.049
71 | V31S | -0.004 ± 0.04
72 | A27C | -0.289 ± 0.28

Row | Variant | abundance fitness
73 | N46L | -0.493 ± 0.089
74 | S62H | -0.127 ± 0.12
75 | F51K | -0.11 ± 0.071
76 | L28A | -0.799 ± 0.23
77 | E2C | -0.984 ± 0.32
78 | C55E | -0.07 ± 0.067
79 | E67A | -0.214 ± 0.071
80 | F6G | -0.688 ± 0.053
81 | I15N | -0.546 ± 0.31
82 | E2I | -0.676 ± 0.15
83 | E67S | -0.088 ± 0.056
84 | E67K | -0.18 ± 0.11
85 | C55M | 0.145 ± 0.13
86 | F36H | -0.747 ± 0.41
87 | L3S | -0.855 ± 0.19
88 | L65F | -0.884 ± 0.25
89 | E66D | -0.037 ± 0.085
90 | G25I | -0.184 ± 0.15
91 | A30I | -0.309 ± 0.15
92 | N23S | 0.086 ± 0.053
93 | L65K | -0.75 ± 0.11
94 | E26V | -0.461 ± 0.11
95 | R14E | -0.952 ± 0.37
96 | E35H | -0.228 ± 0.089

Row | Variant | abundance fitness
97 | L61Y | -0.759 ± 0.13
98 | F10S | -0.544 ± 0.086
99 | G33D | -0.721 ± 0.16
100 | Q21L | -0.138 ± 0.048
101 | S62G | -0.239 ± 0.11
102 | I41V | -0.523 ± 0.12
103 | K63G | -0.153 ± 0.059
104 | A29K | -0.202 ± 0.086
105 | E26W | -0.493 ± 0.12
106 | F51V | 0.021 ± 0.057
107 | N23H | 0 ± 0.077
108 | F51R | -0.161 ± 0.041
109 | W64T | -0.684 ± 0.11
110 | R43C | -0.559 ± 0.12
111 | C55L | 0.121 ± 0.055
112 | N23V | -0.27 ± 0.08
113 | R13T | -0.913 ± 0.3
114 | Q48G | -0.673 ± 0.088
115 | F6V | -0.941 ± 0.11
116 | K52R | -0.04 ± 0.061
117 | Q21V | -0.278 ± 0.064
118 | N46Y | -0.732 ± 0.35
119 | Q21P | -0.275 ± 0.092
120 | K52E | 0.108 ± 0.086

Row | Variant | abundance fitness
121 | A59E | 0.214 ± 0.063
122 | L28D | -0.162 ± 0.11
123 | L57V | 0.063 ± 0.038
124 | T22S | 0.106 ± 0.055
125 | Q48T | -0.177 ± 0.11
126 | I15R | -0.083 ± 0.055
127 | N23Q | 0.347 ± 0.18
128 | T22P | -0.573 ± 0.45
129 | S50V | -0.877 ± 0.15
130 | T20L | -0.683 ± 0.08
131 | F51N | -0.342 ± 0.17
132 | E4P | -0.898 ± 0.15
133 | E45D | -0.991 ± 0.31
134 | Q21I | -0.246 ± 0.088
135 | L3H | -0.611 ± 0.18
136 | N53V | 0.122 ± 0.069
137 | L47W | -0.789 ± 0.22
138 | K63P | -0.303 ± 0.082
139 | A27W | 0.053 ± 0.093
140 | K58R | -0.184 ± 0.067
141 | A29H | -0.079 ± 0.2
142 | L3F | -0.472 ± 0.12
143 | F51I | -0.1 ± 0.069
144 | A30E | -0.128 ± 0.073

Row | Variant | abundance fitness
145 | E4T | -0.249 ± 0.074
146 | L49P | -0.687 ± 0.35
147 | S50N | 0.022 ± 0.092
148 | K5T | -0.21 ± 0.066
149 | G33R | -0.835 ± 0.098
150 | F6D | -1.06 ± 0.22
151 | R14N | -0.897 ± 0.35
152 | V31F | -0.34 ± 0.16
153 | A27E | 0.137 ± 0.095
154 | R1M | -0.712 ± 0.26
155 | S50L | -0.57 ± 0.087
156 | A29N | -0.595 ± 0.38
157 | Q21R | -0.288 ± 0.063
158 | L61I | -0.841 ± 0.24
159 | S62K | -0.3 ± 0.12
160 | R13N | -0.618 ± 0.44
161 | G33I | -1 ± 0.26
162 | S34R | -0.038 ± 0.093
163 | F10C | -0.923 ± 0.39
164 | F36T | -0.512 ± 0.13
165 | A54Q | -0.473 ± 0.18
166 | K56C | -0.505 ± 0.098
167 | E66I | -0.281 ± 0.079
